Laboratory results published in patent US20190367619A1 (ARGENX, published 2019).
Where a chain is given by its changes, count along the chain named.

B1: 2C07 mouse IgG1 (antibody, V domains shown)
VH: ELQLVESGGGLVQPGGSLRLSCAASGFTFSSYAMSWVRQAPGKGLEWVSNINSGGGSTGYADSVKGRFTISRDNAKNTLYLQMNSLKPEDMAVYYCAKYLRTYYPNAAFGMDYWGKGTLVTVSS
VL: QAVLTQPSAVSVSLGQTARITCQGGNFGRYYASWYQQKPGQAPVLVIYRDSERPSGIPERFSGSSSGDTATLTISGAQAEDEADYYCQSGRSSDNAVFGGGTHLTGL
notes: VH on mouse IgG1 heavy chain constant domains (CH1-CH2-CH3), VL on mouse lambda light chain constant domain; also called 2C07 mIgG1
B2: 6A08 mouse IgG1 (antibody, V domains shown)
VH: QVQLVESGGGLVQPGGSLRLSCAASGFTFSSYAMSWVRQAPGKGPEWVSAINRGGGSTYYADSVKGRFTISRDNAKNTLYLQMNSLKPEDAAVYYCATPGDRLWYYRYDYWGQGAQVTVSS
VL: QTVVTQEPSLSVSPGGTVTLTCGLSSGSVTSSNYPGWYQQTPGQAPRLLIYNTNSRYSGVPNRFSGSISGNKAALIISGAQPEDEADYHCALNRVRGTYRVFGGGTHLTVL
notes: also called 6A08 mIgG1
B3: 6B06 mouse IgG1 (antibody, V domains shown)
VH: QVQRQESGPGLVKPSQTLSLTCTVSGGSITTNYYSWSWIRQPPGKGLEWIGYIAYSGSTSYSPSLKSRTSISRDTSNNQFSLQLSSVTPEDTAVYYCARSRSSPTTFGMDYWGKGTLVTVSS
VL: B1 VL with Q1S, A2S, V3A, A32V, Q36T, R49Q, S55T, R91T, A96I, G106V
notes: also called 6B06 mIgG1
B4: 6E10 mouse IgG1 (antibody, V domains shown)
VH: QLQLVESGGGLVQPGGSLRLSCAASGFTFSSYWMYWVRQAPGKGLEWVSAINTGGGSTYYADSVKGRFTISRDNAKNTLYLQMNSLKPEDTALYYCARAGSGVAGTGYDYWGQGTQVTVSS
VL: B1 VL with A2P, T5N, R29Y, A32V, E52G, R91S, G106V
notes: also called 6E010; 6E10 mIgG1

Legend:
[1] = target: T1, human galectin-10-His (recombinant human galectin-10 with TEV-cleavable N-terminal His-tag) (human); test: BLI tandem on galectin-10-His; competitor: saturating 6E10 mIgG1 (10 ug/mL)
T1 construct: SEC-MALLS: dimer in solution; also called Gal10-His; humanGal10-His
T1 chain: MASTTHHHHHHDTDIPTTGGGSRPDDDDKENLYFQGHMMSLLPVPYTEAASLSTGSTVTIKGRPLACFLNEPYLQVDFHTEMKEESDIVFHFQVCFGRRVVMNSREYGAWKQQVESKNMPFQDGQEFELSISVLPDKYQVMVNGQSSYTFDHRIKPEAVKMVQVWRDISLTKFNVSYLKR
Protocol: (§1) In order to identify the galectin-10 binding sites of the different clones, an epitope mapping method (TANDEM), using the BLI technology, was established. Briefly, the galectin-10-His was captured on anti-HIS 1K sensor tips, before incubation with an excess of one antibody (called the “saturating” antibody) then directly transferred to a solution containing the “competitor” antibody at a suboptimal concentration. If the “saturating” and the competitor antibody bind to the same binding sites, no binding of “competitor” will be detected (expressed in nm shift).

[2] = target: T1, human galectin-10-His (recombinant …); test: BLI tandem on galectin-10-His; competitor: saturating 6F06 mIgG1 (10 ug/mL)
Protocol: as §1

[3] = target: T1, human galectin-10-His (recombinant …); test: BLI tandem on galectin-10-His; competitor: saturating 1C09 mIgG1 (10 ug/mL)
Protocol: as §1

[4] = target: T1, human galectin-10-His (recombinant …); test: BLI tandem on galectin-10-His; competitor: saturating 6A08 mIgG1 (10 ug/mL)
Protocol: as §1

[5] = target: T2, TEV-cleaved wild-type recombinant human galectin-10 (soluble, in Fab complexes, or as recombinant galectin-10 … (human, UniProt Q05315 1-142)); test: cell-based or functional assay
T2 sequence: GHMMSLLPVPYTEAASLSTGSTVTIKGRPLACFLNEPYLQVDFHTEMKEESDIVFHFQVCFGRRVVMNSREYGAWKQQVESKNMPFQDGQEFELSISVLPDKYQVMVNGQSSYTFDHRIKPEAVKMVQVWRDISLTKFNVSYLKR

[6] = target: T1, human galectin-10-His (recombinant …); test: BLI tandem on galectin-10-His; competitor: saturating 6B06 mIgG1 (10 ug/mL)
Protocol: as §1

[7] = target: T1, human galectin-10-His (recombinant …); test: ELISA, mouse IgG1 on coated galectin-10-His (0.2 ug/mL)
Protocol: In a similar setup to that used during the characterization of the scFv-human Fc molecules, the relative binding affinities of the 10 mouse IgG1 antibodies were analyzed by ELISA. A Maxisorp plate was coated overnight with 0.2 μg/mL of galectin-10-His. Then a serial dilution of each clone (from 100 nM, dilution 1/4, 12 points of dilutions) was incubated on coated galectin-10. After several washing steps, detection of the bound mouse IgG1 was carried out with an anti-mouse Fc-HRP antibody. Absorbance was measured at 450 nm (reference at 620 nm) with Tecan instrument. A mouse IgG1 isotype control was used as negative control. A polyclonal anti-galectin-10 antibody was used as positive control for the coating of galectin-10. The raw data (OD values) were plotted on GraphPad Prism 7.01. The EC50 values for each antibody, calculated with a non-linear regression (log(agonist) vs. response Variable slope (four parameters)), are reported in Table 7 below.

[8] = target: T1, human galectin-10-His (recombinant …); test: BLI tandem on galectin-10-His; competitor: saturating 4E08 mIgG1 (10 ug/mL)
Protocol: as §1

[9] = target: T1, human galectin-10-His (recombinant …); test: BLI tandem on galectin-10-His; competitor: saturating 2F09 mIgG1 (10 ug/mL)
Protocol: as §1

[10] = target: T1, human galectin-10-His (recombinant …); test: SPR Biacore T3000, mouse IgG1 captured by anti-mouse Fc, galectin-10-His as analyte
Protocol: The binding capacity of the mouse IgG1 antibodies to galectin-10 was analyzed on Biacore T3000. For this purpose, a capture approach was set up. A CM5 Chip was coated with polyclonal anti-mouse Fc at 8000 RU, then a fixed concentration of the mouse IgG1 antibody panel (1.5 μg/mL), diluted in HBS-EP pH7.4, was captured to reach a binding signal around 150 RU. Finally, a serial dilution of galectin-10-His (serial dilution, 1 over 2 from 5 μg/mL) diluted in HBS-EP pH7.4 was injected. Raw data were analyzed via BIA evaluation software with a blank subtraction (4-3). The kd/KD and Rmax of each mAb to galectin-10-His was determined using the Fit Kinetics simultaneous ka/kd/Binding with mass transfer/Local Rmax on BIA evaluation software.

[11] = target: T1, human galectin-10-His (recombinant …); test: BLI tandem on galectin-10-His; isotype control as saturating antibody (10 ug/mL)
Protocol: as §1

[12] = target: T1, human galectin-10-His (recombinant …); test: BLI tandem on galectin-10-His; buffer in place of the saturating antibody
Protocol: as §1

[13] = target: T1, human galectin-10-His (recombinant …); test: BLI tandem on galectin-10-His; competitor: saturating 2C07 mIgG1 (10 ug/mL)
Protocol: as §1

[14] = target: T1, human galectin-10-His (recombinant …); test: BLI tandem on galectin-10-His; competitor: saturating 6A05 mIgG1 (10 ug/mL)
Protocol: as §1

[15] = target: T1, human galectin-10-His (recombinant …); test: BLI tandem on galectin-10-His; competitor: saturating 1D11 mIgG1 (10 ug/mL)
Protocol: as §1

Binder | binding signal (nm) [1] [nm] | binding signal (nm) [2] [nm] | binding signal (nm) [3] [nm] | binding signal (nm) [4] [nm] | 100% Solubilization of CLC (Conc uM) [5] [µM] | binding signal (nm) [6] [nm] | Bmax [7] [OD] | EC50 [7] [nM] | binding signal (nm) [8] [nm] | binding signal (nm) [9] [nm] | Kd [10] [nM] | koff [10] [s⁻¹] | binding signal (nm) [11] [nm] | binding signal (nm) [12] [nm] | binding signal (nm) [13] [nm] | binding signal (nm) [14] [nm] | binding signal (nm) [15] [nm]
B1 | -0.04 | 0.04 | 0 | -0.01 | > 2.2 | 0.04 | 2.95 | 0.08 | -0.05 | -0.01 | 0.5 | 0.00036 | 0.73 | 0.8 | 0.03 | 0.04 | 0.04
B2 | -0.05 | 0.05 | 0 | -0.04 | > 10 | 0.05 | 3.2 | 0.15 | -0.05 | 0 | 1 | 0.00067 | 1.04 | 1.08 | 0.05 | 0.05 | 0.05
B3 | -0.02 | 0.05 | 0.01 | 0.02 | > 10 | 0.03 | 3.28 | 0.08 | 0.03 | 0 | 0.3 | 0.00306 | 0.94 | 0.98 | 0.04 | 0.06 | 0.07
B4 | 0 | 0.07 | 0.03 | 0.04 | 10.5 | 0.04 | 2.4 | 0.17 | 0.1 | 0 | 0.5 | 0.00082 | 1.34 | 1.38 | 0.06 | 0.09 | 0.1
